Data: article PMC7505961

Experiments:
[1] = tested on: cGAS (human); assay: EMSA; conditions: 5 mM Mg2+, 20 mM Tris-HCl pH 7.6, 60 mM NaCl, 5 mM MgCl2, 10 ul, 30 min on ice, 80 nM (145/185) or 10 nM (2450/oligo) substrate, 1.5% agarose, 0.2x TBE
[2] = target: 185-nucleosome (185 bp dsDNA, Widom 601 extended by 20 bp on both ends, with recombinant histone octamer)
[3] = target: 145-nucleosome ("601" nucleosome core particle: 145 bp Widom 601 DNA with recombinant histone octamer)
[4] = target: 185-nucleosome (185 bp dsDNA, Widom 601 extended by 20 bp on both ends, with recombinant histone octamer); assay: native gel or EMSA; FAM-labelled nucleosome (0.8 pmol; oligonucleosomes 0.1 pmol) mixed with different amounts of cGAS in 20 mM Tris-HCl pH 7.6, 60 mM NaCl, 5 mM MgCl2, total volume 10 ul; on ice 30 min; 1.5% agarose gel, 0.2x TBE; Kd from percent bound nucleosome against cGAS concentration
[5] = target: Oligonucleosomes (2,450 bp dsDNA reconstituted with recombinant histone octamers); assay: as above
[6] = target: 145-nucleosome ("601" nucleosome core particle: 145 bp Widom 601 DNA with recombinant histone octamer); assay: as above

Substance: 2,450-dsDNA
- Kd [1]: 68 nM

Substance: 185-nucleosome
- Kd [1]: 172 nM

Substance: 185-dsDNA
- Kd [1]: 394 nM

Substance: human cGAS (cGMP-AMP synthase) (from UniProt Q8N884 1-522) (enzyme)
- amount of cGAMP after 3 h incubation with cGAS, ATP and GTP (UPLC-MS/MS), against that induced by dsDNA (% of that induced by dsDNA) [2]: 15
- amount of cGAMP after 3 h incubation with cGAS, ATP and GTP (UPLC-MS/MS), against that induced by dsDNA (% of that induced by dsDNA) [3]: 15
- initial velocity of cGAMP generation in vitro (UPLC-MS/MS; 2 uM cGAS, ATP, GTP, 37 °C), against that induced by 145-dsDNA (ratio to 145-dsDNA) [3]: 0.1
- Kd [4]: 172 nM
- Kd [5]: 66 nM
- Kd [6]: 67 nM

Substance: 145-tailless nucleosome
- Kd ([1]; tailless histones: H4 del1-20, H3 del1-37, H2A del1-15, H2B del1-31): 79 nM

Substance: 145-nucleosome
- Kd [1]: 67 nM

Substance: Oligonucleosomes
- Kd [1]: 66 nM

Substance: 145-dsDNA
- Kd [1]: 350 nM
